# Measurements published in article PMC11236199.
# Experiments:
# [1] = molecular target: civet SARS CoV SZ3/2003 spike protein ectodomain (civet SARS CoV SZ3/2003 | bacteriophage T4); experiment: cryo-EM structure
# [2] = molecular target: civet SARS CoV 007/2004 spike protein ectodomain (civet SARS CoV 007/2004 | bacteriophage T4); experiment: cryo-EM structure
Substance,stoichiometry N [1],stoichiometry N [2]
civet SARS CoV SZ3/2003 spike protein ectodomain (domain or fragment),3,–
civet SARS CoV 007/2004 spike protein ectodomain (domain or fragment),–,3
